Numbered stars: 1 amine (or outer) side, 2 acyl side, 3 side chain; on linkers, the order of the positions; unused ones are H or OH. Square brackets hold non-standard residues; d marks the D form. Side chains are listed from the residue outwards. Ends that are not written are not given here. * marks the point of attachment. Phe(4-CH2NH2) = NCc1ccc(C[C@H](N)C(=O)O)cc1; C18 diacid = O=C(O)CCCCCCCCCCCCCCCCC(=O)*; αMeW = C[C@](N)(Cc1c[nH]c2ccccc12)C(=O)O; γGlu = O=C(O)[C@H](CCC(=O)[*:2])N[*:1]; Met(O2) = CS(=O)(=O)CC[C@H](N)C(=O)O; αMeD = C[C@](N)(CC(=O)O)C(=O)O; αMeS = C[C@](N)(CO)C(=O)O; AEEA = NCCOCCOCC(=O)O; Aib = CC(C)(N)C(=O)O
What was measured:
[1] = target: human GLP-1 receptor (GLP1R) (human, UniProt P43220 24-463); test: cell-based or functional assay
[2] = target: human Glucagon receptor (GCGR) (human, UniProt P47871 26-477); test: cell-based or functional assay
human Glucagon receptor (GCGR), sequence (P47871 26-477): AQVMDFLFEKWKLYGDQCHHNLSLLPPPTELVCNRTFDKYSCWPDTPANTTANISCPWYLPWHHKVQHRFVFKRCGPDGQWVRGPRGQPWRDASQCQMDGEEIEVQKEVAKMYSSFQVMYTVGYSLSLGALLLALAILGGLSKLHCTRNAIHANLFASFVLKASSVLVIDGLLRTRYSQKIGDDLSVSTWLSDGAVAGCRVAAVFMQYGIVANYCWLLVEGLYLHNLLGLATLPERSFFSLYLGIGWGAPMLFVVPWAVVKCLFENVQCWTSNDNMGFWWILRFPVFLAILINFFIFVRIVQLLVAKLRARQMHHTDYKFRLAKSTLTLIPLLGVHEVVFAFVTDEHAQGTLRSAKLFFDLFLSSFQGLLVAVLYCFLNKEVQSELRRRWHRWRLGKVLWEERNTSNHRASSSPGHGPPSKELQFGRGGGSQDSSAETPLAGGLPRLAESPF

Binder	GLP1R EC50 human [1] [nM]	GCGR EC50 human [2] [nM]
H[Aib]QGTFTSDYSKYLDARAAK([AEEA-AEEA-γGlu-C20‑OH])DFVQWL[Met(O2)][αMeD]T-NH2 [TP565]	2.26	5.42
H[dS]QGTFTSDYSKYLD[Aib]RAAK([AEEA-AEEA-γGlu-C20‑OH])DFVQWL[Met(O2)]DT-NH2 [TP578]	4.95	0.604
H[Aib]QGTFTSDYSKYLDARAAK([AEEA-AEEA-γGlu-C18 diacid])DFVQ[αMeW]L[Met(O2)]DT-NH2 (N-terminus assumed; SMILES CC(C)C[C@H](NC(=O)[C@H](Cc1ccc(O)cc1)NC(=O)[C@H](CCCCN)NC(=O)[C@H](CO)NC(=O)[C@H](Cc1ccc(O)cc1)NC(=O)[C@H](CC(=O)O)NC(=O)[C@H](CO)NC(=O)[C@@H](NC(=O)[C@H](Cc1ccccc1)NC(=O)[C@@H](NC(=O)CNC(=O)[C@H](CCC(N)=O)NC(=O)C(C)(C)NC(=O)[C@@H](N)Cc1c[nH]cn1)[C@@H](C)O)[C@@H](C)O)C(=O)N[C@@H](CC(=O)O)C(=O)N[C@@H](C)C(=O)N[C@@H](CCCNC(=N)N)C(=O)N[C@@H](C)C(=O)N[C@@H](C)C(=O)N[C@@H](CCCCNC(=O)COCCOCCNC(=O)COCCOCCNC(=O)CC[C@H](NC(=O)CCCCCCCCCCCCCCCCC(=O)O)C(=O)O)C(=O)N[C@@H](CC(=O)O)C(=O)N[C@@H](Cc1ccccc1)C(=O)N[C@H](C(=O)N[C@@H](CCC(N)=O)C(=O)N[C@@](C)(Cc1c[nH]c2ccccc12)C(=O)N[C@@H](CC(C)C)C(=O)N[C@@H](CCS(C)(=O)=O)C(=O)N[C@@H](CC(=O)O)C(=O)N[C@H](C(N)=O)[C@@H](C)O)C(C)C) [TP631]	1.32	1.65
H[Aib]QGTFTSDYSKYLDARAAKDFVQ[αMeW]L[Met(O2)][αMeD]T-NH2 (not fully specified (residue 20); printed as HUQGTFTSDYSKYLDARAAK(PEG2PEG2γEC18-OH)DFVQαMWL2αMDT-NH2) [TP632]	6.6	5.9
H[αMeS]QGTFTSDYSKYLD[Aib]RAAK([AEEA-AEEA-γGlu-C20‑OH])DFVQWL[Met(O2)]DT-NH2 [TP593]	4.95	
H[Aib]QGTFTSDYSKYLDARAAQ[Phe(4-CH2NH2)]([AEEA-γGlu-C18 diacid])FVQWLLDT-NH2 (N-terminus assumed; SMILES CC(C)C[C@H](NC(=O)[C@H](Cc1ccc(O)cc1)NC(=O)[C@H](CCCCN)NC(=O)[C@H](CO)NC(=O)[C@H](Cc1ccc(O)cc1)NC(=O)[C@H](CC(=O)O)NC(=O)[C@H](CO)NC(=O)[C@@H](NC(=O)[C@H](Cc1ccccc1)NC(=O)[C@@H](NC(=O)CNC(=O)[C@H](CCC(N)=O)NC(=O)C(C)(C)NC(=O)[C@@H](N)Cc1c[nH]cn1)[C@@H](C)O)[C@@H](C)O)C(=O)N[C@@H](CC(=O)O)C(=O)N[C@@H](C)C(=O)N[C@@H](CCCNC(=N)N)C(=O)N[C@@H](C)C(=O)N[C@@H](C)C(=O)N[C@@H](CCC(N)=O)C(=O)N[C@@H](Cc1ccc(CNC(=O)COCCOCCNC(=O)CC[C@H](NC(=O)CCCCCCCCCCCCCCCCC(=O)O)C(=O)O)cc1)C(=O)N[C@@H](Cc1ccccc1)C(=O)N[C@H](C(=O)N[C@@H](CCC(N)=O)C(=O)N[C@@H](Cc1c[nH]c2ccccc12)C(=O)N[C@@H](CC(C)C)C(=O)N[C@@H](CC(C)C)C(=O)N[C@@H](CC(=O)O)C(=O)N[C@H](C(N)=O)[C@@H](C)O)C(C)C) [TP633]	0.19	0.12
H[αMeS]QGTFTSDYSKYLD[Aib]RAAK([AEEA-AEEA-γGlu-C20‑OH])DFVQWL[Met(O2)]DT-NH2 [TP592]	2.42	
